Data as given in US20180125892A1 (published 2018).
Numbering of substitutions follows the chain as printed. Blank lines part the entries; values can stand above or below the binder they belong to.

Molecular target: T1, human CD20 (human, UniProt P11836 1-297)
T1 construct: whole, on cells; cell-surface antigen; also called MS4A1
T1 sequence (looked up): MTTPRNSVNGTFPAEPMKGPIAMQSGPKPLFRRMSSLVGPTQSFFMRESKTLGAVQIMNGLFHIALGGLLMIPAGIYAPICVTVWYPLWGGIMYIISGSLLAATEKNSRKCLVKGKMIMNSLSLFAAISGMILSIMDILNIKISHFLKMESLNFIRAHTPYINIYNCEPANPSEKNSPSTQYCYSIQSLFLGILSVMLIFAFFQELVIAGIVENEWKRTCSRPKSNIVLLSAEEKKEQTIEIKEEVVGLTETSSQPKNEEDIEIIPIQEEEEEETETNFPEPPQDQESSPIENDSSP
Assay: worded conclusion from JNL NFAT-luciferase reporter co-culture with CD20-positive cell lines
Source text: To evaluate the functional ability of CD20 CARs to activate JNL cells, they were co-cultured with target cancer cells to read out their activation by quantifying luciferase expression. The humanized scFv-based CARs CD20-C2H1, -C2H2, -C2H3, -C2H4, -C3H1, -C3H2, -C3H3, -C3H4, -C5H1, -C5H2, -C5H3, -C5H4, -C8H1, -C8H2, -C8H3, and -C8H4, were compared to CD20-8aBBz and CD20-3, -3m, -3J, -3H5k3, and -3H5k1. The control CARs CD20-3 and CD20-8aBBz were used in all assays to compare assay variation and/or act as a control. The EGFRvIII CAR T cells (CAR 2174, Johnson et al., Science Translational Medicine 2015) were used as non-targeting control.
JNL CART cells were co-cultured with the Burkitt's lymphoma line Raji (RRID: CVCL_0511) and the diffuse large B cell lymphoma (DLBCL) lines Pfeiffer (RRID: CVCL_3326), HBL-1 (RRID: CVCL_4213) and TMD8 (RRID: CVCL_A442); K562 (RRID: CVCL_0004), a chronic myelogenous leukemia (CML) cell line, served as CD20-negative control. Co-cultures were set up in 384-well plates at effector-to-target (E:T) ratios of 4:1, 2:1, 1:1 and 0.5:1 and incubated for 24 h, after which the expression of luciferase by the activated JNL CAR T cells was quantified by britelite plus Reporter Gene Assay System (PerkinElmer, Waltham, Mass.). The amount of light emitted from each well (Luminescence) was a direct read-out of JNL activation by the respective CAR. […] Some of the humanized scFvs, which were fused to the transmembrane and signaling domains of the CARs, seem to have improved the efficacy of CARs to activate JNL T cells. These were CD20-C2H1, -C2H3, -C5H1, -C5H2, and -C8H3.

B1: CD20-C8H2 CAR (other)
chain: QVQLVQSGAEVKKPGASVKVSCKASGYTFTRYNMHWVRQAPGQRLEWMGAIYPGNGDTSYSQKFKGRVTITADKSASTAYMELSSLRSEDTAVYYCARSFFYGSSDWYFDVWGQGTTVTVSSGGGGSGGGGSGGGGSGGGGSDIQLTQSPSFLSASVGDRVTITCRASSSVNNMHWYQQKPGKAPKPLIYATSNLASGVPSRFSGSGSGTEYTLTISSLQPEDFATYYCQQWIFNPPTFGQGTKLEIKTTTPAPRPPTPAPTIASQPLSLRPEACRPAAGGAVHTRGLDFACDIYIWAPLAGTCGVLLLSLVITLYCKRGRKKLLYIFKQPFMRPVQTTQEEDGCSCRFPEEEEGGCELRVKFSRSADAPAYQQGQNQLYNELNLGRREEYDVLDKRRGRDPEMGGKPRRKNPQEGLYNELQKDKMAEAYSEIGMKGERRRGKGHDGLYQGLSTATKDTYDALHMQALPPR
notes: CAR on cell surface; residues 1-21 = signal peptide
binding result: binds

B2: CD20-C2H1 CAR (other)
chain: QVQLVQSGAEVKKPGASVKVSCKASGYTFTNYWMHWVRQAPGQGLEWMGFITPTTGYPEYNQKFKDRVTMTADKSTSTAYMELSSLRSEDTAVYYCARRKVGKGVYYALDYWGQGTTVTVSSGGGGSGGGGSGGGGSGGGGSDIQMTQSPSSLSASVGDRVTITCRASGNIHNYLAWYQQKPGKVPKLLIYNTKTLADGVPSRFSGSGSGTDYTLTISSLQPEDVATYYCQHFWSSPWTFGGGTKVEIKTTTPAPRPPTPAPTIASQPLSLRPEACRPAAGGAVHTRGLDFACDIYIWAPLAGTCGVLLLSLVITLYCKRGRKKLLYIFKQPFMRPVQTTQEEDGCSCRFPEEEEGGCELRVKFSRSADAPAYQQGQNQLYNELNLGRREEYDVLDKRRGRDPEMGGKPRRKNPQEGLYNELQKDKMAEAYSEIGMKGERRRGKGHDGLYQGLSTATKDTYDALHMQALPPR
notes: CAR on cell surface
binding result: binds

B3: CD20-C2H3 CAR (other)
chain: B2 chain with D143A, Q145R, S151F, G183A, V185A, L189F, V225F
notes: as for B1
binding result: binds

B4: CD20-C2H4 CAR (other)
chain: B2 chain with A16S, M70I, D143A, Q145R, S151F, G183A, V185A, L189F, V225F
notes: as for B1
binding result: binds

B5: CD20-C2H2 CAR (other)
chain: B2 chain with A16S, M70I
notes: as for B1
binding result: binds

B6: CD20-C3H2 CAR (other)
chain: QVQLVQSGAEVKKPGASVKVSCKASGYTFTNYNLHWVRQAPGQGLEWMGAIYPGNYDTSYNQKFKGRVTMTADKSTSTAYMELSSLRSEDTAVYYCARVDFGHSRYWYFDVWGQGTTVTVSSGGGGSGGGGSGGGGSGGGGSDIQLTQSPSFLSASVGDRVTITCRATSSVSSMNWYQQKPGKAPKPLIHATSNLASGVPSRFSGSGSGTEYTLTISSLQPEDFATYYCQQWTFNPPTFGQGTKLEIKTTTPAPRPPTPAPTIASQPLSLRPEACRPAAGGAVHTRGLDFACDIYIWAPLAGTCGVLLLSLVITLYCKRGRKKLLYIFKQPFMRPVQTTQEEDGCSCRFPEEEEGGCELRVKFSRSADAPAYQQGQNQLYNELNLGRREEYDVLDKRRGRDPEMGGKPRRKNPQEGLYNELQKDKMAEAYSEIGMKGERRRGKGHDGLYQGLSTATKDTYDALHMQALPPR
notes: as for B1
binding result: binds

B7: CD20-C5H1 CAR (other)
chain: QVQLVQSGAEVKKPGASVKVSCKASGYTFTSYNMHWVRQAPGQGLEWMGAIYPGNGDTSYNPKFKGRVTMTADKSTRTAYMELSSLRSEDTAVYYCARSYFYGSSSWYFDVWGQGTTVTVSSGGGGSGGGGSGGGGSGGGGSEIVLTQSPATLSLSPGERATLSCRASSSVSSMHWYQQKPGQAPRPLIFATSNLASGIPARFSGSGSGTDYTLTISSLEPEDAAVYYCQQWIFNPPTFGGGTKVEIKTTTPAPRPPTPAPTIASQPLSLRPEACRPAAGGAVHTRGLDFACDIYIWAPLAGTCGVLLLSLVITLYCKRGRKKLLYIFKQPFMRPVQTTQEEDGCSCRFPEEEEGGCELRVKFSRSADAPAYQQGQNQLYNELNLGRREEYDVLDKRRGRDPEMGGKPRRKNPQEGLYNELQKDKMAEAYSEIGMKGERRRGKGHDGLYQGLSTATKDTYDALHMQALPPR
notes: as for B1
binding result: binds

B9: CD20-C5H4 CAR (other)
chain: QVQLVQSGAEVKKPGSSVKVSCKASGYTFTSYNMHWVRQAPGQGLEWMGAIYPGNGDTSYNPKFKGRVTITADKSTRTAYMELSSLRSEDTAVYYCARSYFYGSSSWYFDVWGQGTTVTVSSGGGGSGGGGSGGGGSGGGGSDIQLTQSPSFLSASVGDRVTITCRASSSVSSMHWYQQKPGKAPKPLIFATSNLASGVPSRFSGSGSGTEYTLTISSLQPEDFATYYCQQWIFNPPTFGGGTKVEIKTTTPAPRPPTPAPTIASQPLSLRPEACRPAAGGAVHTRGLDFACDIYIWAPLAGTCGVLLLSLVITLYCKRGRKKLLYIFKQPFMRPVQTTQEEDGCSCRFPEEEEGGCELRVKFSRSADAPAYQQGQNQLYNELNLGRREEYDVLDKRRGRDPEMGGKPRRKNPQEGLYNELQKDKMAEAYSEIGMKGERRRGKGHDGLYQGLSTATKDTYDALHMQALPPR
notes: as for B1
binding result: binds

B13: CD20-C8H1 CAR (other)
chain: QVQLVQSGAEVKKPGASVKVSCKASGYTFTRYNMHWVRQAPGQRLEWMGAIYPGNGDTSYSQKFKGRVTITADKSASTAYMELSSLRSEDTAVYYCARSFFYGSSDWYFDVWGQGTTVTVSSGGGGSGGGGSGGGGSGGGGSEIVLTQSPDFQSVTPKEKVTITCRASSSVNNMHWYQQKPDQSPKPLIYATSNLASGVPSRFSGSGSGTDYTLTINSLEAEDAATYYCQQWIFNPPTFGQGTKLEIKTTTPAPRPPTPAPTIASQPLSLRPEACRPAAGGAVHTRGLDFACDIYIWAPLAGTCGVLLLSLVITLYCKRGRKKLLYIFKQPFMRPVQTTQEEDGCSCRFPEEEEGGCELRVKFSRSADAPAYQQGQNQLYNELNLGRREEYDVLDKRRGRDPEMGGKPRRKNPQEGLYNELQKDKMAEAYSEIGMKGERRRGKGHDGLYQGLSTATKDTYDALHMQALPPR
notes: as for B1
binding result: binds

Other lines, results leading:

binding result: binds
B8: CD20-C5H3 CAR (other)
chain: B7 chain with A16S, M70I
notes: as for B1

binding result: binds
B10: CD20-C5H2 CAR (other)
chain: B9 chain with S16A, I70M
notes: as for B1

binding result: binds
B11: CD20-C8H4 CAR (other)
chain: B1 chain with A16S, R44G, A76T
notes: as for B1

binding result: binds
B12: CD20-C3H1 CAR (other)
chain: QVQLVQSGAEVKKPGASVKVSCKASGYTFTNYNLHWVRQAPGQGLEWMGAIYPGNYDTSYNQKFKGRVTMTADKSTSTAYMELSSLRSEDTAVYYCARVDFGHSRYWYFDVWGQGTTVTVSSGGGGSGGGGSGGGGSGGGGSEIVLTQSPATLSLSPGERATLSCRATSSVSSMNWYQQKPGQAPRPLIHATSNLASGIPARFSGSGSGTDYTLTISSLEPEDAAVYYCQQWTFNPPTFGQGTKLEIKTTTPAPRPPTPAPTIASQPLSLRPEACRPAAGGAVHTRGLDFACDIYIWAPLAGTCGVLLLSLVITLYCKRGRKKLLYIFKQPFMRPVQTTQEEDGCSCRFPEEEEGGCELRVKFSRSADAPAYQQGQNQLYNELNLGRREEYDVLDKRRGRDPEMGGKPRRKNPQEGLYNELQKDKMAEAYSEIGMKGERRRGKGHDGLYQGLSTATKDTYDALHMQALPPR
notes: as for B1

binding result: binds
B14: CD20-C8H3 CAR (other)
chain: B13 chain with A16S, R44G, A76T
notes: as for B1
